Patent publication US20080311134A1 (published 2008)

Target: T1, MUC16 polypeptide, endogenous, on OVCAR-3 cells (human, UniProt Q8WXI7 1-14507)
T1 construct: whole, on cells; Highly polymorphic repeat protein; also called CA125; O772P
Assay: flow cytometry on OVCAR-3 cells, 25-400 ng/mL, anti-human Fc secondary antibody
Method: Bound antibody was detected using a fluorescent anti-human Fc secondary antibody.
Antibodies were applied at 25, 50, 100, 200, and 400 ng/mL in PBS+1% FBS+2 mM EDTA. After this incubation, cells were washed and then incubated with phycoerythrein-labeled goat anti-human Fc secondary antibody (one hour on ice). Cells were then washed and analyzed by flow cytometry. […] Even the lowest antibody concentration tested (25 ng or approximately 1×10¹¹ antibodies) provides a molar excess of antibodies over binding sites. Therefore, the concentration at which binding is reduced (as detected by flow cytometry) reflect the affinity of the antibody for MUC16.

binding result: binds
B1: A117C thio hu anti-MUC16 3A5 humanized variant (antibody, human IgG1, kappa, V domains shown)
VH: EVQLVESGGGLVQPGGSLRLSCAASGYSITNDYAWNWVRQAPGKGLEWVGYISYSGYTTYNPSLKSRFTISRDTSKNTLYLQMNSLRAEDTAVYYCARWTSGLDYWGQGTLVTVSS
VL: DIQMTQSPSSLSASVGDRVTITCKASDLIHNWLAWYQQKPGKAPKLLIYGATSLETGVPSRFSGSGSGTDFTLTISSLQPEDFATYYCQQYWTTPFTFGQGTKVEIKR
notes: Full-length IgG expressed in CHO cells; Kabat 114, Eu 118; also called thio hu anti-MUC16 HC A117C 3A5; A117C thio hu 3A5
